Experimental data as given in patent EP4803150A2 (Lyvgen Biopharma Holdings Limited, dated 2026).
Where a chain is given by its changes, count along the chain named.

How the values were obtained:
[1] = biological target: T1, CD137 (human, UniProt Q07011 24-186); assay: FCM or ELISA, graded
T1 construct: Whole on GS-H2-huCD137 reporter cells in the reporter assays; also called 4-1BB

[2] = biological target: T2, CD3 (human); assay: CD3 binding as in Example 2 (ELISA or FCM)
T2 chain: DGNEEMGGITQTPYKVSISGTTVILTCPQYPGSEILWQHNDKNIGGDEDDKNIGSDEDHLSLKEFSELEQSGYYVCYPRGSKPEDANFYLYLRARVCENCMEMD

B1: Ly2600 (multi-specific antibody)
chain 1: QVQLVQSGAEVKKPGASVKVSCKASGYTFTSYVMHWVRQKPGQGLEWIGYINPYNEGTESTDKFKGRATMTSDKSTSTVYMELSSLRSEDTAVYYCASIYYGYEGTYFGVWGQGTLVTVSSASTKGPSVFPLAPSSKSTSGGTAALGCLVKDYFPEPVTVSWNSGALTSGVHTFPAVLQSSGLYSLSSVVTVPSSSLGTQTYICNVNHKPSNTKVDKKVEPKSCGGGGSGGGGSGGGGSGGGGSEVQLVESGGGLVQPGGSLRLSCAASGFTFSTYAMNWVRQAPGKGLEWVGRIRSKYNNYATYYADSVKGRFTISRDDSKNSLYLQMNSLKTEDTAVYYCVRHGNFGNSYVSWFAYWGQGTLVTVSSGGGGSDKTHTCPPCPAPELLGPSVFLFPPKPKDTLMISRTPEVTCVVVDVSHEDPEVKFNWYVDGVEVHNAKTKPREEQYNSTYRVVSVLTVLHQDWLNGKEYKCKVSNKALGAPIEKTISKAKGQPREPQVYTLPPSREEMTKNQVSLWCLVKGFYPSDIAVEWESNGQPENNYKTTPPVLDSDGSFFLYSKLTVDKSRWQQGNVFSCSVMHEALHNHYTQKSLSLSPGGGGGSGGGGSGGGGSGGGGSQVQLVQSGAEVKKPGASVKVSCKASGYTFAGFEMHWVRQAPGQGLEWMGAIDPKTGGTDYNQKFKDRVTMTRDTSISTAYMELSRLRSDDTAVYYCARDLGYFDVWGQGTLVTVSS
chain 2: QVQLVQSGAEVKKPGASVKVSCKASGYTFTSYVMHWVRQKPGQGLEWIGYINPYNEGTESTDKFKGRATMTSDKSTSTVYMELSSLRSEDTAVYYCASIYYGYEGTYFGVWGQGTLVTVSSASTKGPSVFPLAPSSKSTSGGTAALGCLVKDYFPEPVTVSWNSGALTSGVHTFPAVLQSSGLYSLSSVVTVPSSSLGTQTYICNVNHKPSNTKVDKKVEPKSCGGGGSGGGGSGGGGSGGGGSQAVVTQEPSLTVSPGGTVTLTCRSSTGAVTTSNYANWVQQKPGQAPRGLIGGTNKRAPWTPARFSGSLLGGKAALTITGAQAEDEADYYCALWYSNLWVFGGGTKLTVLGGGGSDKTHTCPPCPAPELLGPSVFLFPPKPKDTLMISRTPEVTCVVVDVSHEDPEVKFNWYVDGVEVHNAKTKPREEQYNSTYRVVSVLTVLHQDWLNGKEYKCKVSNKALGAPIEKTISKAKGQPREPQVYTLPPSREEMTKNQVSLSCAVKGFYPSDIAVEWESNGQPENNYKTTPPVLDSDGSFFLVSKLTVDKSRWQQGNVFSCSVMHEALHNHYTQKSLSLSPGGGGGSGGGGSGGGGSGGGGSDIQMTQSPSSLSASVGDRVTITCRASQDIRSNLNWYQQKPGGAVKLLIYYTSRLHSGVPSRFSGSGSGTDYTLTISSLQPEDFATYFCQQSEKLPRTFGGGTKVEIR
chain 3: EIVLTQSPATLSLSPGERATLSCRASSSVSYMHWYQQKPGQAPRPWIYATSNLASGIPARFSGSRSGTDYTLTISSLEPEDFAVYYCQQWSSNTLTFGGGTKVEIKRTVAAPSVFIFPPSDEQLKSGTASVVCLLNNFYPREAKVQWKVDNALQSGNSQESVTEQDSKDSTYSLSSTLTLSKADYEKHKVYACEVTHQGLSSPVTKSFNRGEC
notes: B7H3/CD3/CD137
[1]
  binding result: binds

B2: Ly2937 (multi-specific antibody)
chain 1: not shown
chain 2: QVQLVQSGAEVKKPGASVKVSCKASGYTFTSYVMHWVRQKPGQGLEWIGYINPYNEGTESTDKFKGRATMTSDKSTSTVYMELSSLRSEDTAVYYCASIYYGYEGTYFGVWGQGTLVTVSSASTKGPSVFPLAPSSKSTSGGTAALGCLVKDYFPEPVTVSWNSGALTSGVHTFPAVLQSSGLYSLSSVVTVPSSSLGTQTYICNVNHKPSNTKVDKKVEPKSCGGGGSGGGGSGGGGSGGGGSQIVLTQSPAIMSASPGEKVTMTCSASSSVSYMNWYQQKSGTSPKRWIYDTSKLASGVPAHFRGSGSGTSYSLTISGMEAEDAATYYCQQWSSNPFTFGSGTKLEINGGGGSDKTHTCPPCPAPELLGPSVFLFPPKPKDTLMISRTPEVTCVVVDVSHEDPEVKFNWYVDGVEVHNAKTKPREEQYNSTYRVVSVLTVLHQDWLNGKEYKCKVSNKALGAPIEKTISKAKGQPREPQVYTLPPSREEMTKNQVSLSCAVKGFYPSDIAVEWESNGQPENNYKTTPPVLDSDGSFFLVSKLTVDKSRWQQGNVFSCSVMHEALHNRFTQKSLSLSPGKGGGGSGGGGSGGGGSGGGGSDIQMTQSPSSLSASVGDRVTITCRASQDIRSNLNWYQQKPGGAVKLLIYYTSRLHSGVPSRFSGSGSGTDYTLTISSLQPEDFATYFCQQSEKLPRTFGGGTKVEIR
chain 3: B1 chain 3
notes: B7H3/CD3/CD137
[1]
  binding result: binds

B3: Ly2936 (multi-specific antibody)
chain 1: QVQLVQSGAEVKKPGASVKVSCKASGYTFTSYVMHWVRQKPGQGLEWIGYINPYNEGTESTDKFKGRATMTSDKSTSTVYMELSSLRSEDTAVYYCASIYYGYEGTYFGVWGQGTLVTVSSASTKGPSVFPLAPSSKSTSGGTAALGCLVKDYFPEPVTVSWNSGALTSGVHTFPAVLQSSGLYSLSSVVTVPSSSLGTQTYICNVNHKPSNTKVDKKVEPKSCGGGGSGGGGSGGGGSGGGGSEVQLVESGGGLVQPGGSLRLSCAASGFTFSTYAMNWVRQAPGKGLEWVGRIRSKYNNYATYYADSVKGRFTISRDDSKNSLYLQMNSLKTEDTAVYYCVRHGNFGNSYVSWFAYWGQGTLVTVSSGGGGSDKTHTCPPCPAPELLGPSVFLFPPKPKDTLMISRTPEVTCVVVDVSHEDPEVKFNWYVDGVEVHNAKTKPREEQYNSTYRVVSVLTVLHQDWLNGKEYKCKVSNKALGAPIEKTISKAKGQPREPQVYTLPPSREEMTKNQVSLWCLVKGFYPSDIAVEWESNGQPENNYKTTPPVLDSDGSFFLYSKLTVDKSRWQQGNVFSCSVMHEALHNHYTQKSLSLSPGKGGGGSGGGGSGGGGSGGGGSQVQLVQSGAEVKKPGASVKVSCKASGYTFAGFEMHWVRQAPGQGLEWMGAIDPKTGGTDYNQKFKDRVTMTRDTSISTAYMELSRLRSDDTAVYYCARDLGYFDVWGQGTLVTVSS
chain 2: QVQLVQSGAEVKKPGASVKVSCKASGYTFTSYVMHWVRQKPGQGLEWIGYINPYNEGTESTDKFKGRATMTSDKSTSTVYMELSSLRSEDTAVYYCASIYYGYEGTYFGVWGQGTLVTVSSASTKGPSVFPLAPSSKSTSGGTAALGCLVKDYFPEPVTVSWNSGALTSGVHTFPAVLQSSGLYSLSSVVTVPSSSLGTQTYICNVNHKPSNTKVDKKVEPKSCGGGGSGGGGSGGGGSGGGGSQAVVTQEPSLTVSPGGTVTLTCRSSTGAVTTSNYANWVQQKPGQAPRGLIGGTNKRAPWTPARFSGSLLGGKAALTITGAQAEDEADYYCALWYSNLWVFGGGTKLTVLGGGGSDKTHTCPPCPAPELLGPSVFLFPPKPKDTLMISRTPEVTCVVVDVSHEDPEVKFNWYVDGVEVHNAKTKPREEQYNSTYRVVSVLTVLHQDWLNGKEYKCKVSNKALGAPIEKTISKAKGQPREPQVYTLPPSREEMTKNQVSLSCAVKGFYPSDIAVEWESNGQPENNYKTTPPVLDSDGSFFLVSKLTVDKSRWQQGNVFSCSVMHEALHNRFTQKSLSLSPGKGGGGSGGGGSGGGGSGGGGSDIQMTQSPSSLSASVGDRVTITCRASQDIRSNLNWYQQKPGGAVKLLIYYTSRLHSGVPSRFSGSGSGTDYTLTISSLQPEDFATYFCQQSEKLPRTFGGGTKVEIR
chain 3: B1 chain 3
notes: B7H3/CD3/CD137
[1]
  binding result: binds

B4: Ly1966 (multi-specific antibody)
chain 1: QVQLQQSGAELVRPGSSVKISCKASGYAFSSYWMNWVKQRPGQGLEWIGQIWPGDGDTNYNGKFKGKATLTADESSSTAYMQLSSLASEDSAVYFCARRETTTVGRYYYAMDYWGQGTTVTVSSASTKGPSVFPLAPSSKSTSGGTAALGCLVKDYFPEPVTVSWNSGALTSGVHTFPAVLQSSGLYSLSSVVTVPSSSLGTQTYICNVNHKPSNTKVDKKVEPKSCGGGGSGGGGSGGGGSGGGGSEVQLVESGGGLVQPGGSLRLSCAASGFTFSTYAMNWVRQAPGKGLEWVGRIRSKYNNYATYYADSVKGRFTISRDDSKNSLYLQMNSLKTEDTAVYYCVRHGNFGNSYVSWFAYWGQGTLVTVSSGGGGSDKTHTCPPCPAPEAAGPSVFLFPPKPKDTLMISRTPEVTCVVVDVSHEDPEVKFNWYVDGVEVHNAKTKPREEQYNSTYRVVSVLTVLHQDWLNGKEYKCKVSNKALPAPIEKTISKAKGQPREPQVYTLPPSREEMTKNQVSLWCLVKGFYPSDIAVEWESNGQPENNYKTTPPVLDSDGSFFLYSKLTVDKSRWQQGNVFSCSVMHEALHNHYTQKSLSLSPGGGGGSGGGGSGGGGSGGGGSQVQLVQSGAEVKKPGASVKVSCKASGYTFAGFEMHWVRQAPGQGLEWMGAIDPKTGGTDYNQKFKDRVTMTRDTSISTAYMELSRLRSDDTAVYYCARDLGYFDVWGQGTLVTVSS
chain 2: QVQLQQSGAELVRPGSSVKISCKASGYAFSSYWMNWVKQRPGQGLEWIGQIWPGDGDTNYNGKFKGKATLTADESSSTAYMQLSSLASEDSAVYFCARRETTTVGRYYYAMDYWGQGTTVTVSSASTKGPSVFPLAPSSKSTSGGTAALGCLVKDYFPEPVTVSWNSGALTSGVHTFPAVLQSSGLYSLSSVVTVPSSSLGTQTYICNVNHKPSNTKVDKKVEPKSCGGGGSGGGGSGGGGSGGGGSQAVVTQEPSLTVSPGGTVTLTCRSSTGAVTTSNYANWVQQKPGQAPRGLIGGTNKRAPWTPARFSGSLLGGKAALTITGAQAEDEADYYCALWYSNLWVFGGGTKLTVLGGGGSDKTHTCPPCPAPEAAGPSVFLFPPKPKDTLMISRTPEVTCVVVDVSHEDPEVKFNWYVDGVEVHNAKTKPREEQYNSTYRVVSVLTVLHQDWLNGKEYKCKVSNKALPAPIEKTISKAKGQPREPQVYTLPPSREEMTKNQVSLSCAVKGFYPSDIAVEWESNGQPENNYKTTPPVLDSDGSFFLVSKLTVDKSRWQQGNVFSCSVMHEALHNRFTQKSLSLSPGGGGGSGGGGSGGGGSGGGGSDIQMTQSPSSLSASVGDRVTITCRASQDIRSNLNWYQQKPGGAVKLLIYYTSRLHSGVPSRFSGSGSGTDYTLTISSLQPEDFATYFCQQSEKLPRTFGGGTKVEIR
chain 3: not shown
notes: CD19/CD3/CD137
[2]
  EC50: 0.348 µg/mL

B5: Ly1967 (multi-specific antibody)
chain 1: B4 chain 1
chain 2: B4 chain 2 with R575H, F576Y
chain 3: not shown
notes: CD19/CD3/CD137
[2]
  EC50: 1.56 µg/mL
